Experimental data from PMC13408441, “Molecular regulation and physiological role of GOLPH3-mediated Golgi retention” (Nature Communications, 2026).
Entries after “also recorded” stand apart in the source; their conditions may differ.

Legend:
[1] = test system: LCS; assay: ITC of GOLPH3 mutants with LCS peptide; format: binding; details: 25 °C, pH 8.0, relative to non-mutated GOLPH3
Description: (§1) Supplemental Material for Theodoropoulou, Nasrallah, et al 2026
(§2) Isothermal titration calorimetry
(§3) Isothermal titration calorimetry (ITC) experiments were performed on a MicroCal PEAQ-ITC (Malvern Panalytical), with GOLPH3 variants being in a buffer containing 250 mM NaCl, 50 mM Tris pH 8.0 and 1 mM TCEP. LCS peptides were synthesised and delivered as lyophilised powder (Genscript). The peptides were dissolved in the protein buffer and their concentrations were calculated based upon their absorbance at 280 nm and their corresponding molar extinction coefficient. Experiments consisted of titrations of a single 0.4 µL injection followed […]
(§4) GOLPH3 proteins at a 100 μM concentration. Experiments were performed at 25 °C in triplicate (n = 3), with injection duration of 4 s, injection spacing of 150 s, stir speed of 750 rpm, and reference power of 7 μcal/s. Data were processed and plotted using MicroCal PEAQ‐ITC Analysis Software and fitted to a one‐site binding model.
(§5) Circular Dichroism Spectroscopy
(§6) Circular Dichroism Spectra of GOLPH3 proteins (at 10 μM in 100 mM NaCl, 50 mM Tris pH 7.4 and 1 mM TCEP) were collected with a Chirascan V100 (AppliedPhotophysics), using a 1 mm path length cuvette, at 20 °C, in the 200-260 nm range. Thermal denaturation experiments […]
(§7) every 1 °C, with a temperature ramp speed of 1 °C/min and an equilibration time of […]
(§8) Table S2: Fits of CD spectra to fractions of secondary structure for Golph3 WT and various mutants of it, carried out with the BestSel server

[2] = CD secondary structure of GOLPH3 proteins (BestSel fits); format: physicochemical, human; details: 10 μM, 100 mM NaCl, 50 mM Tris pH 7.4, 1 mM TCEP, 20 °C
Description: as §1
Isothermal titration calorimetry […]
as §5, §6, §7, §8

[3] = test system: HeLa cells; assay: Immunofluorescence of GOLPH3 Golgi localization; format: cell-based, human; details: quantitative immunofluorescence
Description: as §1
(Sigma, E4382), 5 mL of 1% Phloxine B (Fluka, 28550), 360 mL of 95% ethanol, and 2 mL of glacial acetic acid. Slides were then washed in distilled water, dehydrated, cleared in xylene, and mounted using Eukitt mounting medium (Sigma-Aldrich).
For Alcian Blue staining, sections were deparaffinized, rehydrated, and incubated for 25 minutes at room temperature in 1% Alcian Blue (Sigma-Aldrich, A5268) dissolved in 3% acetic acid (pH 2.5). The solution was filtered prior to use and prepared by dissolving 5 g of Alcian Blue in 500 mL of 3% glacial acetic acid. After staining, slides were washed in running tap water for 5 minutes and briefly rinsed in distilled water. Nuclei were counterstained with 0.1% nuclear fast red (Vector Laboratories, H-3403) for 5 minutes, followed by rinsing, dehydration, clearing, and mounting with Eukitt. Acidic mucopolysaccharides and mucins […]
Immunofluorescence and confocal microscopy
HeLa GOLPH3-KO cells transfected with the different GOLPH3 constructs were plated at approximately 50% confluency post-transfection. Cells were washed with PBS, fixed in 4% paraformaldehyde (PFA) for 20 minutes, washed with PBS, quenched with 50 mM NH4Cl for 10 minutes, and washed again with PBS. Cells were permeabilized with 0.05% saponin in PBS for 5 minutes. Subsequently, cells were washed and blocked with 3% BSA and 0.05% saponin in PBS for 30 minutes. Primary antibodies (anti-GOLPH3 and anti-GM130) and secondary antibodies were diluted in the same buffer. After blocking, coverslips were washed and incubated with primary antibodies overnight at 4 °C, washed in PBS, and incubated for 45 minutes with secondary antibodies. Cells were then washed and stained with Hoechst for nuclear visualization. Finally, coverslips were mounted in Prolong Glass Antifade Mountant.
Images were acquired using a Zeiss LSM 980 Inverted microscope with a 63X objective, a pinhole size of 1 AU and at least 2 line-averaging or alternatively using Oympus Evident FV4000. Super-resolution images were taken using Zeiss LSM980 with Airyscan2 module, with 63×oil-immersion objectives. Images were processed using Fiji (ImageJ). Cis-to-trans Golgi linescans were recorded using the “Color Profiler” plugin (Color_Profiler. jar, https://imagej.nih.gov/ij/plugins/color -profiler.html) in Fiji software.
Forty-eight hours after transfection, cells were harvested by trypsinization, fixed 10 minutes in 4% PFA/PBS, washed, and resuspended in PBS containing 1% BSA.

[4] = CD thermal denaturation of GOLPH3 proteins; format: physicochemical, human; details: CD at 207 nm, 20 to 95 °C at 1 °C/min, 10 μM protein, 100 mM NaCl, 50 mM Tris pH 7.4, 1 mM TCEP
Description: as §1, §2, §3, §4, §5, §6, §7, §8

[5] = test system: GOLPH3-KO HeLa cells; assay: 3H-palmitate metabolic labeling of GOLPH3 mutants; format: cell-based, human; details: 3H-palmitic acid 3 h, autoradiography after immunoprecipitation
Description: To detect palmitoylation, HeLa WT or GOLPH3-KO cells were transfected or not with different GOLPH3 constructs, incubated for 3 h in IM (Glasgow minimal essential medium buffered with 10 mM Hepes, pH 7.4) with 200 mCi/ml ^3H palmitic acid (9,10-^3H(N)) (American Radiolabeled Chemicals, Inc.). The cells were washed and directly lysed for immunoprecipitation with the anti-GOLPH3 rabbit antibody. […] After SDS-PAGE, the gel was incubated in a fixative solution (25% isopropanol, 65% H2O, 10% acetic acid), followed by a 30-min incubation with signal enhancer Amplify NAMP100 (GE Healthcare). […] Quantification of radioactive experiments was quantified using specific screens by autoradiography. The images shown for ^3H-palmitate labeling were however obtained using fluorography (indirect detection of radioactive emission by stimulated light emission from a fluorophore (Amplify) on film).

[6] = test system: GOLPH3-KO HeLa cells; assay: Targeted LC-MS/MS of glycosphingolipids in GOLPH3-KO HeLa expressing GOLPH3 mutants; format: cell-based, human

| binding of GOLPH3 mutants to LCS [1] | Molecule | % alpha [2] [%] | % beta parallel [2] [%] | % beta-antiparallel [2] [%] | % others [2] [%] | % turn [2] [%] | Golgi localization of GOLPH3 mutants [3] | Tm / melting temperature [4] [°C] | palmitoylation of GOLPH3 mutants [5] | promotion of lipid glycosylation [6] |
| --- | --- | --- | --- | --- | --- | --- | --- | --- | --- | --- |
| reduced binding | D247A: GOLPH3 mutant D247A; recombinant in biophysics, transfected construct in cells (protein, UniProt Q9H4A6 1-298, looked up, variant D247A) Golgi phosphoprotein 3: MTSLTQRSSGLVQRRTEASRNAADKERAAGGGAGSSEDDAQSRRDEQDDDDKGDSKETRLTLMEEVLLLGLKDREGYTSFWNDCISSGLRGCMLIELALRGRLQLEACGMRRKSLLTRKVICKSDAPTGDVLLDEALKHVKETQPPETVQNWIELLSGETWNPLKLHYQLRNVRERLAKNLVEKGVLTTEKQNFLLFDMTTHPLTNNNIKQRLIKKVQEAVLDKWVNDPHRMDRRLLALIYLAHASAVLENAFAPLLDEQYDLATKRVRQLLDLDPEVECLKANTNEVLWAVVAAFTK | 36 | 0 | 8 | 44 | 12 |  |  |  |  |
|  | R90L: GOLPH3 mutant defective in PtdIns(4)P binding (protein, UniProt Q9H4A6 1-298, looked up, variant R90L) Golgi phosphoprotein 3: MTSLTQRSSGLVQRRTEASRNAADKERAAGGGAGSSEDDAQSRRDEQDDDDKGDSKETRLTLMEEVLLLGLKDREGYTSFWNDCISSGLLGCMLIELALRGRLQLEACGMRRKSLLTRKVICKSDAPTGDVLLDEALKHVKETQPPETVQNWIELLSGETWNPLKLHYQLRNVRERLAKNLVEKGVLTTEKQNFLLFDMTTHPLTNNNIKQRLIKKVQEAVLDKWVNDPHRMDRRLLALIYLAHASDVLENAFAPLLDEQYDLATKRVRQLLDLDPEVECLKANTNEVLWAVVAAFTK |  |  |  |  |  | largely abolished Golgi localization |  |  |  |
|  | D247A/D258A/D262A: GOLPH3 triple mutant D247A/D258A/D262A; recombinant in biophysics, transfected in cells (protein, UniProt Q9H4A6 1-298, looked up, variant D247A D258A D262A) Golgi phosphoprotein 3: MTSLTQRSSGLVQRRTEASRNAADKERAAGGGAGSSEDDAQSRRDEQDDDDKGDSKETRLTLMEEVLLLGLKDREGYTSFWNDCISSGLRGCMLIELALRGRLQLEACGMRRKSLLTRKVICKSDAPTGDVLLDEALKHVKETQPPETVQNWIELLSGETWNPLKLHYQLRNVRERLAKNLVEKGVLTTEKQNFLLFDMTTHPLTNNNIKQRLIKKVQEAVLDKWVNDPHRMDRRLLALIYLAHASAVLENAFAPLLAEQYALATKRVRQLLDLDPEVECLKANTNEVLWAVVAAFTK | 40 | 0 | 0 | 47 | 13 |  |  |  |  |
| weaken or abrogate binding | D247R/D258R/D262R: recombinant GOLPH3 triple mutant D247R/D258R/D262R (protein, UniProt Q9H4A6 1-298, looked up, variant D247R D258R D262R) Golgi phosphoprotein 3: MTSLTQRSSGLVQRRTEASRNAADKERAAGGGAGSSEDDAQSRRDEQDDDDKGDSKETRLTLMEEVLLLGLKDREGYTSFWNDCISSGLRGCMLIELALRGRLQLEACGMRRKSLLTRKVICKSDAPTGDVLLDEALKHVKETQPPETVQNWIELLSGETWNPLKLHYQLRNVRERLAKNLVEKGVLTTEKQNFLLFDMTTHPLTNNNIKQRLIKKVQEAVLDKWVNDPHRMDRRLLALIYLAHASRVLENAFAPLLREQYRLATKRVRQLLDLDPEVECLKANTNEVLWAVVAAFTK | 38 | 0 | 7 | 40 | 15 |  | 57 |  |  |
|  | C108A: GOLPH3 S-acylation mutant C108A, transfected construct (protein, UniProt Q9H4A6 1-298, looked up, variant C108A) Golgi phosphoprotein 3: MTSLTQRSSGLVQRRTEASRNAADKERAAGGGAGSSEDDAQSRRDEQDDDDKGDSKETRLTLMEEVLLLGLKDREGYTSFWNDCISSGLRGCMLIELALRGRLQLEAAGMRRKSLLTRKVICKSDAPTGDVLLDEALKHVKETQPPETVQNWIELLSGETWNPLKLHYQLRNVRERLAKNLVEKGVLTTEKQNFLLFDMTTHPLTNNNIKQRLIKKVQEAVLDKWVNDPHRMDRRLLALIYLAHASDVLENAFAPLLDEQYDLATKRVRQLLDLDPEVECLKANTNEVLWAVVAAFTK |  |  |  |  |  | increased Golgi localization |  | modest effect |  |
|  | C122A: GOLPH3 S-acylation mutant C122A, transfected construct (protein, UniProt Q9H4A6 1-298, looked up, variant C122A) Golgi phosphoprotein 3: MTSLTQRSSGLVQRRTEASRNAADKERAAGGGAGSSEDDAQSRRDEQDDDDKGDSKETRLTLMEEVLLLGLKDREGYTSFWNDCISSGLRGCMLIELALRGRLQLEACGMRRKSLLTRKVIAKSDAPTGDVLLDEALKHVKETQPPETVQNWIELLSGETWNPLKLHYQLRNVRERLAKNLVEKGVLTTEKQNFLLFDMTTHPLTNNNIKQRLIKKVQEAVLDKWVNDPHRMDRRLLALIYLAHASDVLENAFAPLLDEQYDLATKRVRQLLDLDPEVECLKANTNEVLWAVVAAFTK |  |  |  |  |  | increased Golgi localization |  | modest effect |  |
|  | GOLPH3-C108A/C122A: GOLPH3 double S-acylation mutant C108A/C122A, transfected construct (protein, UniProt Q9H4A6 1-298, looked up, variant C108A C122A) Golgi phosphoprotein 3: MTSLTQRSSGLVQRRTEASRNAADKERAAGGGAGSSEDDAQSRRDEQDDDDKGDSKETRLTLMEEVLLLGLKDREGYTSFWNDCISSGLRGCMLIELALRGRLQLEAAGMRRKSLLTRKVIAKSDAPTGDVLLDEALKHVKETQPPETVQNWIELLSGETWNPLKLHYQLRNVRERLAKNLVEKGVLTTEKQNFLLFDMTTHPLTNNNIKQRLIKKVQEAVLDKWVNDPHRMDRRLLALIYLAHASDVLENAFAPLLDEQYDLATKRVRQLLDLDPEVECLKANTNEVLWAVVAAFTK |  |  |  |  |  |  |  |  | displays active behavior |

| Molecule | binding of GOLPH3 mutants to LCS [1] | % alpha [2] [%] | % beta parallel [2] [%] | % beta-antiparallel [2] [%] | % others [2] [%] | % turn [2] [%] | Golgi localization of GOLPH3 mutants [3] | Tm / melting temperature [4] [°C] | palmitoylation of GOLPH3 mutants [5] | promotion of lipid glycosylation [6] |
| --- | --- | --- | --- | --- | --- | --- | --- | --- | --- | --- |
| D247R: recombinant GOLPH3 mutant D247R (protein, UniProt Q9H4A6 1-298, looked up, variant D247R) Golgi phosphoprotein 3: MTSLTQRSSGLVQRRTEASRNAADKERAAGGGAGSSEDDAQSRRDEQDDDDKGDSKETRLTLMEEVLLLGLKDREGYTSFWNDCISSGLRGCMLIELALRGRLQLEACGMRRKSLLTRKVICKSDAPTGDVLLDEALKHVKETQPPETVQNWIELLSGETWNPLKLHYQLRNVRERLAKNLVEKGVLTTEKQNFLLFDMTTHPLTNNNIKQRLIKKVQEAVLDKWVNDPHRMDRRLLALIYLAHASRVLENAFAPLLDEQYDLATKRVRQLLDLDPEVECLKANTNEVLWAVVAAFTK | reduced binding; also recorded: weaken or abrogate binding | 38 | 0 | 0 | 52 | 10 |  | 57 |  |  |
